The text below walks through data of the DeepSol protein solubility set.

This series is described as follows: soluble on expression in E. coli; label from the status in PepcDB or PDB records.
With “MPVKVLNFPSVVLQHFLVGLTSTELFELTQCSLKSKDRVRPYEKSNKTFRMAVDFQRNWVDIRGVYRFYVKELVDGKLPKTYGKMGVREFGDKKVQVELDENEKTINIFWPTTEKEDRTFAVMKVAEHFIYTLGLGEFESVTLGQENHAGRIIDWANEKNLNIANFTIGNVDKEHDDVDKVAEKLYSASFFKKVSANFKCLINPTEAFKPNEFLPGIPKNTNMIFFHGAHWMTIDTLKDFTACSVILYDCKFTNKDINEFIKLWKNKEFERIFYISINVPQGSGFKLTEVIAGLDGFGEIENDATTMKREDGKEIEVSVLDEKKQIRIVVD”, the “soluble on expression in E. coli” value is reported as “not soluble”.

On to “MGSDKIHHHHHHMAPLLFRQILDLEAEAIQRAAERADAEAFANATQLIANCSGKVVLSGVGKSGIIARKITATLLSIGTLSAFLHPCDALHGDLGIVTEQDVVVMLSNSGETDELLAMLPHLQRRQVPIIAIVGNMRSTLARVAAAVLDASVDREACPLNLAPTASTTVALAIGDALAAQVMDYRSVTSEQFAFNHPAGRLGKRLTLKVVDVMHQGEELPLLPPEARFVEVVTAISRGGLGAVPIVEADGRLLGLITDGDLRRLLEQTSPAKLDQITAAEFMTPQPIAVEGDLLAYDALHLMENRPSQISVLPVVDAAQRCLGLVRIHDLIRSGI”, for which the “soluble on expression in E. coli” value is on record as “not soluble”. “MGKLLTMAMPKGRIFEEAAGLLRQAGYRLPEEFEDSRKLIIDVPEENLRFILAKPMDVTTYVEHGVADVGIAGKDVMLEEERDVYEVLDLNISKCHLAVAGLPNTDWSGVAPRIATKYPNVASSYFREQGEQVEIIKLNGSIELAPLIGLADRIVDIVSTGQTLKENGLVETEHICDITSRFIVNPVSYRMKDDVIDEMASRLSLVVEGETAKLEHHHHHH”: the “soluble on expression in E. coli” value is recorded as “soluble”. With “QTFSEEDHAILASYFPIVDGIAALIGEHCEIVLHSLEFLENSAIYIANGHNTDRKIGSPLTDKALKSLHQMQTDSVSKPYFTRLKGGILMKSITIAIRNSKQHVIGFICININLDVPTAQFLTSFIPRTQDDEN” the entry was “not soluble”; with “MTNEFEILKPGKLLLASANLLDPNFKRTVLLMCEHNEEGSIGFILNKPMEFKVCEAISGFDEIDEPLHMGGPVQVDTVHVLHTRGDVIDGAVEVIPGLFWGGDKEQLSYLINTGVIKASEVRFFLGYAGWSAGQLEAEFEEGSWYTADASSEQVFTDEYERMWSRSVRSKGGEYCYVANSPELPGMNLEHHHHHH”, “not soluble”; with “MNDNEKQLDLRIRRTHKLLWDSLFELMTQSKQKYSTITINQICDRAMVHRTTFYKHFEDKDALLTFGFKRYGKMIAEIPVSDRLSKPFQVMEQFLHHEEIGKILETQMSDEQFINRTQYLSHETRKQEIEALNQLHKNHTMPNDLIIEFYSGAITSLSAWWFKSERKVSAAEMDRYLHQLINRDIFQFEKE”, “not soluble”. The entry for “MGSDKIHHHHHHMSTRIPTEESLDTQQKDFLKKLKDNHYVGQNIWIKGFPGSGKSVLLVYAIKYLLNNEATQNAKILLVVFTHSLIELCKAELAELNITNVKIVTMYEFLKTKRKYDYIFCDEVQDLTSRILIKMKDQTRYMLIVAGDSNQSIYSKDPQYQEAVVIPEKITQLIDSEDWGLLYVYRLTRSIITAIQKMIPSMNIFSAKRYMLKRDTQIRLCKAEFVDQEVEYIMREARKFVNRNQSCAILFPTKDKVLEFCDTVLQLEHKPVWEKWIDQYYEPYFKRLNDHLKENQVPIECVVNSYGSLLAAENDKRIVIMTYHGVKGLDFDNVFIPFANTDLYIPGDSNITQKLFMVAMSRSRNNLYITYTGMPLSYVSLFSSDSTICANISISNELHPNLSDDINIDF” is “not soluble”. The entry for “MGKGLLGKRVAIGGSRKTEEISTIIEKQGGIPVIRPLQGTVYLAEKQVEPDLRTFAEEKADWVIFTTGIGLETLVDMAEKIGLKDEFLQAIRQAKAACRGYKTLSALKKLGITPEASDEDGTTRGLIRSLEPHDFSGKTVMVQLHGEKAPALMAFLEEKGASVLPILPYQHIPPEEETVERLCRELMNDEVDAVCFTTAIQVRSLFDFAKGRGYINEVKKVFEERAIAAAVGKVTAEALREEGITRLLAPEIERMGAMIVELAKYYEEKE” is “not soluble”.

Consider “MPELEVKGKKLRLDEDGFLQDWEEWDEEVAEALAKDTRFSPQPIELTEEHWKIIRYLRDYFIKYGVAPPVRMLVKHCKKEVRPDCNLQYIYKLFPQGPAKDACRIAGLPKPTGCV”, for which the “soluble on expression in E. coli” value is given as “soluble”. Take “MNKTNQIVDLLTNKQNNSIQRRDNLVFVKNEQEFKDILDSTISLSNVYDPLLGNGCEQEKIKELTILNNSVDISKIEEYTKTLESKVDDLYNNVSNQLIQDYQKNENTSANNIIMKNEELLNSHLKEVEKICEQLIDEWKIEILGEVNFKFQQQLIEIDQKQEHKLKVKSLINEDSFLTKRQVKNKNKILTEFEKHRSQITQNYLNKRSDILKKEYDELLKDDKLFELSSGDNWNNFKKITLFISNEIGIINDLEDLLNHQELIRTRNYTKRAILNQHHINGHFKDEKKYLKSLYDLRVKFMYGLGSEIVILKFLIEHYKKLNSLRLRLETLNHPLSNYAVYFDILNRIEKQTQLLAKIETLKYDNYDFNADVILDDLESNITKINEIKHNSNVLNKTKVIKTIIEPKYELELISKDDKVDGVKVYVNDQEILSKLEHHHHHH”: the “soluble on expression in E. coli” value was “not soluble”. Turning to “SGDPNSRKKQALNRLRAQLRKKKESLADQFDFKMYIAFVFKEKKKKSALFEVSEVIPVMTNNYEENILKGVRDSSYSLESSLELLQKDVVQLHAPRYQSMRRDVIGCTQEMDFILWPRNDIEKIVCLLFSRWKESDEPFRPVQAKFEFHHGDYEKQFLHVLSRKDKTGIVVNNPNQSVFLFIDRQHLQTPKNKATIFKLCSICLYLPQEQLTHWAVGTIEDHLRPYMPE”, the “soluble on expression in E. coli” value is “soluble”. With “MGSKVAGKKKTQNDNKLDNENGSQQRENINTKTLLKGNLKISNYKYLEVIQLEHAVTKLVESYNKIIELSPNLVAYNEAVNNQDRVPVQILPSLSRYQLKLAAELKTLHDLKKDAILTEITDYENEFDTEQKQPILQEISKADMEKLEKLEQVKREKREKIDVNVYENLNEKEDEEEDEGEDSYDPTKAGDIVKATKWPPKLPEIQDLAIRARVFIHKSTIKDKVYLSGSEMINAHNERLEFLGDSILNSVMTLIIYNKFPDYSEGQLSTLRMNLVSNEQIKQWSIMYNFHEKLKTNFDLKDENSNFQNGKLKLYADVFEAYIGGLMEDDPRNNLPKIRKWLRKLAKPVIEEATRNQVALEKTDKLDMNAKRQLYSLIGYASLRLHYVTVKKPTAVDPNSIVECRVGDGTVLGTGVGRNIKIAGIRAAENALRDKKMLDFYAKQRAAIPRSESVLKDPSQKNKKRKFSDTS” the entry was “soluble”; with “RKIGTAFVMGDVEEVMSRSSQLVINPYHGHKEADRDIKNPENWESVMEFAQIDGVFVLDENGIIIACGRYIEASAKDLVSKIKRGLGGRHIACASITKETKAIAVVVSESGGDITVYKD”, “soluble”; with “METKQSMDYIIKGPGGTTKPIAPKLITVNPLNIIIESNSGQIDKTLELKNIYPCRIAFRVRTNGPTRYTVCPSKGFLSNGEKVAIQITLIDGTKYQSNHQFIVQAMPSPGDFADRKFIWKQPNFLGIFTNTRVKTMRPAQSLPKSNPKSPAKVSTPTDSGMSSPVASSESLVTPSVPSWSKSPSSPIDHGKFAENINDLSVQVKKAIDEKNTRTSEMVSVVNQIKAVEVDLDRQAQLVNELSERVKRGEIQYSNLVMHERSLRVELGRLKNNEAESIGQ”, “not soluble”. Regarding “TAVSLEQLLIAREQRVALQQQCLHEYQQTLLSLTLTAVGPVKKNALLDYVFAKALANITACFNKLSVTATAQFIRPLQTGHEALFVLPIDAKILKRAMIELENSSPLARLWDIDVISQEGHYSRGEFGFAERTCLMCAESAKICARSRRHSIDDLLSEIHTRAQQ”, the “soluble on expression in E. coli” value was “not soluble”. With “MSLNFVAMDFETANQHPASACSLALVLVRESKIIDRFYTVINPQMAFDAQQVKVHDITAEDVAGAPTMAEVWPKIQPLFQPGMLVAAHNARFDCNVMKQSLARYGIAEPHYLVLDSLKVSRELEPGLDNYQLNTVSDLLGVELWHHHNALSDSEACAGILLKEEEKRGSELLKKFVYQVEGHHHHHH” the entry was “not soluble”. Consider “SQTRDLQGGKAFGLLKAQQEERLDEINKQFLDDPKYSSDEDLPSKLEGFKEKYMEFDLNGNGDIDIMSLKRMLEKLGVPKTHLELKKLIGEVSSGSGETFSYPDFLRMMLGKRSAILKMILMYEEKAREK”, for which the “soluble on expression in E. coli” value is recorded as “not soluble”.
